From WO2021175954A1 (dated 2021)
Positions count from the first letter of the chain named. Several values for one entry are separate records, joined by “and”; a condition that tells them apart may be missing. Equal entries are not always repeated.

Key:
[1] = biological target: T1, recombinant human BTNL8 protein (BLI) (human, UniProt Q6UX41 18-238, limits assumed); experiment: BLI, recombinant human BTNL8
T1 construct: it may be the same rhBTNL8-Fc as in the Luminex assay; also called hBTNL8; recombinant BTNL8 protein
T1 sequence: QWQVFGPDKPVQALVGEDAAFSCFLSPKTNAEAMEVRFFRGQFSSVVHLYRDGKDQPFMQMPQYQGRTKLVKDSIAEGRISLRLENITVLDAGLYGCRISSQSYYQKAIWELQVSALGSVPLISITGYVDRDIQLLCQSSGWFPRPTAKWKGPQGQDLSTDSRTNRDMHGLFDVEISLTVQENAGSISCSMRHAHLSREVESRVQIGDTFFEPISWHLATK

[2] = biological target: T2, human BTNL8/BTNL3 heterodimer expressed on HEK-293T cells (human, UniProt Q6UXE8 18-466); experiment: flow cytometry on HEK-BTNL3/BTNL8 cells, chimeric format
T2 construct: whole, on cells; also called HEK-BTNL8/BTNL3; HEK-BTNL3/BTNL8
T2 sequence 1: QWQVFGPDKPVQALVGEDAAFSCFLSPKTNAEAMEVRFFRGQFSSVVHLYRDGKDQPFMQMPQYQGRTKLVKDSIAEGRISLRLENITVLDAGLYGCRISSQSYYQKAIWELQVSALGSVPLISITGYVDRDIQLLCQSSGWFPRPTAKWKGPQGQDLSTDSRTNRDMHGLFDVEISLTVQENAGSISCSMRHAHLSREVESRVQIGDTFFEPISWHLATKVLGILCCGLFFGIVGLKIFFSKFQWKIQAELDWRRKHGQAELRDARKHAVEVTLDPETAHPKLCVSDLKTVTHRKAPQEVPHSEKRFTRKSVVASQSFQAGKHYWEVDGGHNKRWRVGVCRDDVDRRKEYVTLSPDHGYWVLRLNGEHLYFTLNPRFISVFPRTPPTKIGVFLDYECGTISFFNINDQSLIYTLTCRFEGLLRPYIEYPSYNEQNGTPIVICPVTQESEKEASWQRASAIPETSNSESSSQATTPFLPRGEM
T2 sequence 2: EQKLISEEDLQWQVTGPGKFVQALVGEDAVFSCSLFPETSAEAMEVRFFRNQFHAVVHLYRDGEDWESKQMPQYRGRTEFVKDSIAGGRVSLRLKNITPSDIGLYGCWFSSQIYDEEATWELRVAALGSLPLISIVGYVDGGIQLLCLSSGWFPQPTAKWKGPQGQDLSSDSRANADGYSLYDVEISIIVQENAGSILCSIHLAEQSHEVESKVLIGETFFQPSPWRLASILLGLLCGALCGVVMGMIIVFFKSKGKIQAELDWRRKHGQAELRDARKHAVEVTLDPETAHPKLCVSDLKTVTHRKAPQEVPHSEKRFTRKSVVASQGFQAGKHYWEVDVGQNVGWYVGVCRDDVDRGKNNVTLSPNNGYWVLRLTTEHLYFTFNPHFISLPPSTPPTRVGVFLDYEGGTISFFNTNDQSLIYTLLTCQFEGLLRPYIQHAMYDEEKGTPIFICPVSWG

[3] = biological target: T3, human BTNL8 expressed on cells (HEK-BTNL8 transductants); also endogenous on CaCo-2, HL-60 and primary gut … (human, UniProt Q6UX41 18-500); experiment: flow cytometry on HEK-BTNL8 cells, chimeric format
T3 construct: also called Homo sapiens butyrophilin like 8
T3 sequence: T2 sequence 1

[4] = biological target: T2, human BTNL8/BTNL3 heterodimer expressed …; experiment: cell-based or functional assay
[5] = biological target: T4, human BTNL3 with N-terminal c-Myc tag expressed on HEK-293T cells (human, UniProt Q6UXE8 18-466); experiment: flow cytometry on HEK-BTNL3 cells
T4 construct: whole, on cells; also called HEK-BTNL3; myc-tagged BTNL3
T4 sequence: T2 sequence 2

B1: chimeric anti-BTNL8 mAb mAbX3 (antibody, V domains shown)
VH: EVQLQQSGAELVRPGASVKLSCTASGFNIKDDYMHWVKQRPEQGLEWIGRIDPANANTKYAPKFQDKATITADTSSNTAYLHLSSLTSEDSAVYYCARNYYDGSPYYFDYWGQGTTLTVSS
VL: NIVMTQSPKSMSMSVGERVTLTCKASENVVTYVSWYQQKPEQSPKLLIYGASNRYTGVPDRFTGSGSATDFTLTISSVQAEDAAGYYCHQWSRYPYTFGGGTKLEIK
B1: no binding [1].

B2: chimeric anti-BTNL8 mAb mAbX1 (antibody, V domains shown)
VH: QVQLQQSGAELARPGASVKLSCKASGYIFTSYGIGWVKQRTGQGLEWIGEVYPRNGHSYYNEKFKGKATLTADRSSSTAYMQLSSLTSEDSAVYFCARGGTGSQLDYWGQGTTLTVSS
VL: DIQMTQSPASLSASVGETVTITCRASENIYSYLAWYQQKQGKSPHLLVYNAKTLAEGVPSRFSGSGSGTQFSLRISSLQPEDFGNYYCQHHYGTYTFGGGTKLEIK
notes: also called mAbXl
For B2, the EC50 [2] was < 0.5 µg/mL and < 3.3 nM, the EC50 [3] was < 0.5 µg/mL and < 3.3 nM and the “IC50/EC50 of inhibition of Vy4V51TCR reporter cell activation (NFAT-GFP, CD69, TCRV51)” value [4] was < 0.5 µg/mL and < 3.3 nM.

B3: reference murine antibody mAb X1 (antibody, V domains shown)
VH: B2 VH
VL: B2 VL
notes: Murine monoclonal antibody, tested as hybridoma supernatant or purified from it
B3: no binding [5].

B4: chimeric anti-BTNL8 mAb mAbX2 (antibody, V domains shown)
VH: EVQLQQSGAEFVRPGASVKMSCTGSGLNIEDDYMHWVKQRPEQGLEWIGRIDPANGNTKYGPKFQDKATITADTSSNTAYLQLSSLTAEDTAVYYCTRNYYDGSLYYFDYWGQGTTLTVSS
VL: QIVLTQSPAIMSASLGEEITLTCSASSSVSYMHWYQQKSGTSPKLLIYSTSNLASGVPSRFSGSGSGTFYSLTISSVEAEDAADYYCHQWSRYPYTFGGGTKLEIK
B4 was tested, and the EC50 [2] was < 0.5 µg/mL and < 3.3 nM, the EC50 [3] was < 0.5 µg/mL and < 3.3 nM and the “IC50/EC50 of inhibition of Vy4V51TCR reporter cell activation (NFAT-GFP, CD69, TCRV51)” value [4] was < 0.5 µg/mL and < 3.3 nM.

B5: reference murine antibody mAb X2 (antibody, V domains shown)
VH: B4 VH
VL: B4 VL
notes: as for B3
B5: no binding [5].

B6: chimeric anti-BTNL8 mAb mAbX4 (antibody, V domains shown)
VH: EVQLQQSGAELVRPGASVKLSCTASGFNIKDDYMHWVKQRPEQALEWIGRIDPANGNTKYVPKFQDKATITADTSSNTASLQLSSLTSEDTAVYYCARWGIYDGYYYTMDSWGQGTSVTVSS
VL: QNVLIQSPAIMSASPGEKVTITCSASSSVSYMHWFQQKPGTSPKLWIYSTSNLASGVPARFSGSGSGTSYSLTISRMEAADAATYFCQQRSRYPYTFGGGTKLEIK
B6 was tested, and the EC50 [2] was < 0.5 µg/mL and < 3.3 nM, the EC50 [3] was < 0.5 µg/mL and < 3.3 nM and the “IC50/EC50 of inhibition of Vy4V51TCR reporter cell activation (NFAT-GFP, CD69, TCRV51)” value [4] was < 0.5 µg/mL and < 3.3 nM.

B7: reference murine antibody mAb X5 (antibody, V domains shown)
VH: EVQLQQSGAELVRPGASIKLSCTASGFNIEDDYMHWVRQRPVQGLEWIGRIDPANGNANFAPKFQDKATITADTSSNTAYLQLSSLASEDTAVYYCTREGGLYYGNSDAMDYWGQGTSVTVSS
VL: B6 VL with N2I, I5T, S26R, H33Q, F35I, A59D, A80E, F86Y, Y95R
notes: as for B3
B7: no binding [5].

B8: chimeric anti-BTNL8 mAb mAbX5 (antibody, V domains shown)
VH: B7 VH
VL: B6 VL with N2I, I5T, S26R, H33Q, F35I, A59D, A80E, F86Y, Y95R
For B8, the EC50 [2] was < 0.5 µg/mL and < 3.3 nM, the EC50 [3] was < 0.5 µg/mL and < 3.3 nM and the “IC50/EC50 of inhibition of Vy4V51TCR reporter cell activation (NFAT-GFP, CD69, TCRV51)” value [4] was < 0.5 µg/mL and < 3.3 nM.

B9: reference murine antibody mAb X4 (antibody, V domains shown)
VH: B6 VH
VL: B6 VL
notes: as for B3
B9: no binding [5].
